Experimental data as given in the supplement of paper PMC9732359.
± gives the uncertainty stated by the source.

Test: protein stability index of a GFP-peptide fusion (yeast GPS) (PSI 1-4); higher = more stable; sorted into four equal gates, so the index is relative within each strain
Procedure, shortened: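 Tiled 17-residue yeast protein peptides were fused downstream of GFP in a plasmid that also expresses Cherry, and the pooled library was carried in yeast. Mid-log cultures in leucine-free medium were sorted into four equal gates by GFP/Cherry fluorescence ratio, and plasmids from each gate were PCR-amplified and Illumina-sequenced, with reads assigned to strains by barcodes. The protein stability index for each peptide was each gate's read frequency times its gate number, summed.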

| Sequence | protein stability index (doa10∆) | protein stability index (pdr5∆) | protein stability index (san1∆) | protein stability index (ubr1∆) |
| --- | --- | --- | --- | --- |
| YVNVAISIYNMLPPKSV [SSN2] | 1.71 ± 0.049 | 1.82 ± 0.043 | 2.01 ± 0.062 | 2.12 ± 0.029 |
| NEDENIQLIKILNSHFD [YJL041W/NSP1] | 2.77 ± 0.052 | 2.98 ± 0.056 | 3.142 ± 0.03 | 2.85 ± 0.037 |
| KDLFELERYYKEQADIY [ARP7] | 3.11 ± 0.09 | 3.34 ± 0.083 | 3.46 ± 0.12 | 3.41 ± 0.067 |
| NAYASFLQRQGKLEVPG [RPS19A] |  | 3.24 ± 0.19 | 3.21 ± 0.12 | 3.2 ± 0.094 |
| DDKYGRKFALEKLYIFY [SRP72] | 2.71 ± 0.076 | 2.82 ± 0.081 | 2.4 ± 0.061 | 2.4 ± 0.055 |
| RSLRATAEERVGRRAAN [RPL15A] | 3.56 ± 0.24 | 3.52 ± 0.19 | 3.03 ± 0.2 | 2.95 ± 0.1 |
| QAPKQRRRTYRAHGRIN [RPL17A] | 2.06 ± 0.29 | 2.64 ± 0.12 | 1.9 ± 0.18 | 2.09 ± 0.091 |
| MTEHETKDKAKKIREIY [BRR2] | 2.6 ± 0.17 | 2.69 ± 0.11 | 2.27 ± 0.18 | 2.35 ± 0.1 |
| LVSLLDENDSKKNNAAS [YAR002W/NUP60] | 3 ± 0.07 | 2.92 ± 0.071 | 2.86 ± 0.092 | 3.08 ± 0.056 |
| TMLELLNQLDGFETSKN [RPT6] | 2.92 ± 0.13 | 3.13 ± 0.11 | 2.63 ± 0.2 | 2.84 ± 0.087 |
| RVVMMKYDRKVPSPTGE [RPO21] | 2.69 ± 0.11 | 3.11 ± 0.069 | 2.69 ± 0.079 | 2.89 ± 0.043 |
| RKVENIRTILVNIHHLL [MED7] | 1.55 ± 0.04 | 1.74 ± 0.041 | 1.5 ± 0.087 | 1.32 ± 0.033 |
| LKDLNLTVSIKIALMNI [RGR1] | 1.34 ± 0.062 | 1.66 ± 0.066 | 1.73 ± 0.077 | 1.21 ± 0.06 |
| VVRRRFRGNISQPKIGY [RPL32] | 2.85 ± 0.096 | 2.88 ± 0.06 | 2.9 ± 0.067 | 2.92 ± 0.05 |
| GKTDYYQRKRLVTQHKA [RPL5] |  |  |  | 3.69 ± 0.22 |
| RKDENQFSYVDSSMTTV [AAR2] | 2.98 ± 0.041 | 3.09 ± 0.045 | 3 ± 0.033 | 3.06 ± 0.04 |
| ANRVTDKLTRVHDKIWC [PRE3] | 2 ± 0.12 | 2.42 ± 0.085 | 2.38 ± 0.063 | 2.34 ± 0.095 |
| ENESTNYQYKIQELRKL [MED7] | 2.25 ± 0.054 | 2.61 ± 0.074 | 2.36 ± 0.074 | 2.69 ± 0.06 |
| HDIAYSKDGLPNKVKTE [RRP6] | 2.74 ± 0.14 | 2.51 ± 0.23 | 2.85 ± 0.18 | 3.2 ± 0.29 |
| PLLPIVEELMKKRRGSR [SNU114] | 2.4 ± 0.11 | 2.79 ± 0.12 | 2.87 ± 0.074 | 2.83 ± 0.13 |

| Sequence | protein stability index (doa10∆) | protein stability index (pdr5∆) | protein stability index (san1∆) | protein stability index (ubr1∆) |
| --- | --- | --- | --- | --- |
| LGSLTVEDYLSSVTSDS [RPC82] | 2.95 ± 0.11 | 3.02 ± 0.076 | 2.19 ± 0.22 | 3.2 ± 0.074 |
| HFLQFSELAGDEELEAE [PRP8] | 3.33 ± 0.15 | 3.11 ± 0.27 |  |  |
| SASHFEQYTKKINSWDQ [YJL041W/NSP1] | 2.8 ± 0.076 | 3.06 ± 0.061 | 2.69 ± 0.083 | 3.02 ± 0.052 |
| PVNTGVLHVSAKGKSGV [RRP40] | 2.48 ± 0.1 | 2.1 ± 0.097 | 2.62 ± 0.14 | 2.64 ± 0.13 |
| EVLQGLLQGGAKVVVTT [FAS2] | 3.22 ± 0.092 | 2.91 ± 0.076 | 2.29 ± 0.076 | 1.61 ± 0.088 |
| VSKMEKAEKTLKSTKHS [SMC4] | 2.69 ± 0.052 | 2.42 ± 0.044 | 2.33 ± 0.042 | 2.83 ± 0.031 |
| RGHRIRREFKQYSLERN [PRP8] | 2.44 ± 0.17 | 2.61 ± 0.094 | 2.81 ± 0.23 | 1.97 ± 0.12 |
| LLVGLIKTFYWLEQFLS [NUT1] | 2.24 ± 0.12 | 1.11 ± 0.076 | 1.34 ± 0.14 | 1.24 ± 0.074 |
| TCAGGRLFNVVVQDSQT [SMC2] | 2.84 ± 0.11 | 3.18 ± 0.11 | 2.39 ± 0.12 | 2.76 ± 0.082 |
| VLHVSAKGKSGVQTAYI [RRP40] | 2.48 ± 0.23 |  |  | 2.91 ± 0.24 |
| VPVALKGQGPFTLTYDI [YMR129W/POM152] | 2.58 ± 0.096 | 2.95 ± 0.11 | 2.83 ± 0.069 | 2.8 ± 0.061 |
| STVKGSVDLEKLAFGLT [TAF14] | 3.58 ± 0.13 | 3.45 ± 0.091 | 3.61 ± 0.057 | 3.67 ± 0.072 |
| ATPSAKEASQEDDNNNV [YLR335W/NUP2] | 2.57 ± 0.058 | 2.62 ± 0.056 | 2.76 ± 0.051 | 2.73 ± 0.05 |
| TSLKCLVNRKPIPFEFQ [SNF2] | 2.56 ± 0.054 | 2.21 ± 0.043 | 2.13 ± 0.053 | 2.19 ± 0.03 |
| KLLKSLKNTKYFQQTTI [PRP8] | 2.12 ± 0.076 | 2.7 ± 0.085 | 2.34 ± 0.068 | 2.59 ± 0.064 |
| RSNDPQSSLSKVDIPLE [NUT2] | 3.02 ± 0.098 | 3.23 ± 0.094 | 3.27 ± 0.056 | 2.93 ± 0.15 |
| IETIGHLITKEEIMHGL [RPN5] | 2.82 ± 0.089 | 3.31 ± 0.14 | 3.13 ± 0.079 | 2.97 ± 0.067 |
| FDFIKDNETPSKKTSPK [YOR098C/NUP1] | 2.25 ± 0.051 | 2.87 ± 0.043 | 2.6 ± 0.063 | 2.96 ± 0.038 |
| RLFNVVVQDSQTATQLL [SMC2] | 2.94 ± 0.07 | 2.79 ± 0.11 | 2.61 ± 0.1 | 2.44 ± 0.079 |
| GWWGHMGGPKQKGITSY [QCR8] | 3.16 ± 0.072 | 2.13 ± 0.08 | 1.41 ± 0.14 | 1.67 ± 0.075 |
